A short description of one data set: physchem. The data set is classed as physicochemical. To be noted: pH 7.4. The method, then:
For logD analysis, the octanol/PBS partition coefficients of the ^99mTc-tricarbonyl labeled BBN conjugates were determined at pH 7.4 utilizing the “shake-flask method” [25, 26]. The logD value for the reference compound [^99mTc][Tc(CO)3(BBN-13)] was −0.54 ± 0.04 while for the glycated compound [^99mTc][Tc(CO)3(12)] it was −1.26 ± 0.16 (Table 2). As expected, these measurements confirmed the increased hydrophilicity of the glycated ^99mTc-labeled BBN conjugate due to the introduction of the sorbitol moiety.
The lipophilicities (LogD) of [^99mTc][Tc(CO)3(L)] (L = 12, 13) were determined by their partition coefficient between n-octanol and PBS (pH 7.4) utilizing the “shake-flask method” [25, 26]. PBS and n-octanol were shaken overnight to saturate each phase. After separation of the layers by gravity, equal volumes (500 µL) of each layer were taken and transferred into an Eppendorf tube and 5 µL (~45 kBq) of the radiolabeled peptide solution were added to the PBS/n-octanol mixture. […] Aliquots of 300 µL were removed from the octanol and PBS phases and the radioactivity was measured in the γ-counter (n = 3 in triplicates). The lipophilicity was calculated as the log value of the average ratio between the radioactivity in the organic fraction (octanol) and the PBS fraction from the samples.

Data set [1] has as its system GRPR expressing PC-3 cells. As to the kind of experiment: Cell binding and internalization studies. The data set is classed as cell-based, human. The method, then: Receptor binding and cell internalization properties of the ^99mTc(CO)3-labeled BBN derivatives were investigated with GRPR expressing PC-3 cells (n = 2–3 in triplicate). Despite the slightly slower uptake kinetics of [^99mTc][Tc(CO)3(12)], both radiolabeled compounds [^99mTc][Tc(CO)3(L)] […] The membrane bound fraction was less than 5% AD/10^6 cells for both compounds. The receptor-specific cell uptake was verified by incubating the cells with the radiopeptides in the presence of 1000-fold excess of natural bombesin as blocking agent.
Cell culture reagents were purchased from Thermo Fisher Scientific (Vienna, Austria) or Sigma-Aldrich (Vienna, Austria). […]
Internalization studies were performed as previously published. […] Non-specific receptor binding was determined by incubating the cells with the radiotracers and 1000-fold excess of natural bombesin (250 pmol; 100 μL per well) as the receptor blocking agent. […] The receptor-bound radioactivity was obtained by incubating the cells twice for 5 min with an ice-cold acidic glycine solution (100 mM NaCl, 50 mM glycine, pH 2.8; 1 mL) on ice followed by removal of the supernatant. […] All fractions were measured in a γ-counter and calculated as percentage of the applied dose (n = 2–3 in triplicate).

For data set [2], the target named is T1, Gastrin-releasing peptide receptor (GRPR) on PC-3 cells (Homo sapiens, UniProt P30550).
T1 construct: using GRPR expressing PC-3 cells; host or cells: PC-3 human prostate adenocarcinoma cells (intact, in 6-well plates, 4 °C)
T1 sequence (P30550 whole entry): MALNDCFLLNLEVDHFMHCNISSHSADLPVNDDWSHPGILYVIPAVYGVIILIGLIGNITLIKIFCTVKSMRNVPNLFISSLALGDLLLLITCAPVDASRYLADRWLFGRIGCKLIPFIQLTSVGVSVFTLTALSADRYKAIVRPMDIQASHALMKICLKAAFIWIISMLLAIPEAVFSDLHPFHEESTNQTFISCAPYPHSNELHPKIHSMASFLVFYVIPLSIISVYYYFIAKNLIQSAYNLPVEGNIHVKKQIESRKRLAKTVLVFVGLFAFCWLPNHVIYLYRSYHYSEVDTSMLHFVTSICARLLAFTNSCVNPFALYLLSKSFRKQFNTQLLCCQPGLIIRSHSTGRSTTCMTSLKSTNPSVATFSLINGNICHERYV
The data set is described as follows: Receptor saturation assay. The data set is classed as binding. To be noted: 4 °C, 2 h, nonlinear regression, mean ± SEM, n = 2–3 in triplicate. The method, then:
The receptor affinity (Kd) and maximum receptor occupancy (Bmax) were determined by receptor saturation assays using increasing amounts of the radiolabeled peptides (Figure 3). […] Differences in specific molar activities (MBq/mol) could account for this observation and cannot be entirely excluded even though both ^99mTc-radiopeptides were prepared under identical conditions. Because this study aims at the investigation of differences in the pharmacokinetics of the radiopeptides (e.g., rate and route of excretion) rather than in tumor uptake, we continued with the evaluation of both compounds in vivo.
Cell culture reagents were purchased from Thermo Fisher Scientific (Vienna, Austria) or Sigma-Aldrich (Vienna, Austria). Human prostate adenocarcinoma cells (PC-3) were purchased from ATCC and cultivated in RPMI-1640 medium supplemented with 10% heat-inactivated fetal bovine serum (FBS), 2 mM L-glutamine, 100 units/mL penicillin and 100 μg/mL streptomycin under humidified atmosphere (37 °C, 5% CO2) until minimum 80% at confluence. […]
Receptor binding assays were performed as previously published. […] Non-specific receptor binding was determined using an excess of natural bombesin (2.5 μM/well for concentrations of the radiopeptide <10 nM, and 10 μM/well for higher concentrations). […] The obtained fractions were measured in a γ-counter.

A short description of data set [3]: Biodistribution in nude mice bearing PC-3 tumor xenografts. The conditions noted are these: female, athymic nude (Fox-1^nu), mouse, in vivo, iv, 10 pmol, total radioactivity. Here is the method: Biodistribution studies were performed in nude mice bearing PC-3 tumor xenografts at 1 h post-injection (p.i.) of the radiotracers (n = 6; Table 3, Figure 4).
All animals were treated according to the European Union rules on animal care. Animal experiments were approved by the Austrian Ministry of Sciences (BMBWF-66.009/0122-V/3b/2019). Approximately 5 × 10^6 PC-3 cells in 100 µL serum-free medium were subcutaneously injected into flanks of 8-week-old, female, athymic mice (Fox-1^nu, Charles River Laboratories). Xenografts were allowed to grow for 16 days (approx. size: 250 mm^3) and mice were intravenously injected via the tail vein with 0.1 µM radiolabeled peptide (10 pmol, ~42 kBq, 100 µL physiological saline) alone (baseline experiments) or co-injected with 2000-fold excess BBN(1–14) (20 nmol; blocking experiments). One hour p.i. of the radiotracers, mice were sacrificed and organs, tumor and blood were removed. Radioactivity in organs and tissues was quantified using a γ-counter (2480 Wizard^2, PerkinElmer). Organs and tissues were wet-weighted and percentage of injected dose per gram was calculated (% ID/g). Statistical analysis (2-way ANOVA) was performed by GraphPad Prism.

For orientation: logD means lipophilicity at a set pH, counting ionised and neutral species. By Kd is commonly meant the constant that tells how readily two partners part at equilibrium. Lower therefore signals tighter binding.

SMILES strings stand for the structures. Like-named read-outs stand apart in the source and are kept apart here. Some results are limits rather than exact numbers.

On to `CCCC[C@H](NC(=O)[C@H](CC(C)C)NC(=O)[C@H](Cc1c[nH]cn1)NC(=O)CNC(=O)[C@@H](NC(=O)[C@H](C)NC(=O)[C@H](Cc1c[nH]c2ccccc12)NC(=O)[C@H](CCC(N)=O)NC(=O)CCNC(=O)CCNC(=O)CCNC(=O)Cn1cc(CN[C@@H](CCCCNC(=O)CCCOC[C@H](O)[C@@H](O)[C@H](O)[C@H](O)CO)C(=O)O)nn1)C(C)C)C(N)=O` [[^99mTc][Tc(CO)3(12)], metal not drawn], for which the increase of hydrophilicity (logD) vs non-glycated reference came to 0.7 log units. The logD in “physchem” is -1.26 ± 0.16. Moreover, the “cellular binding and uptake in the presence of blocking agent” value in data set [1] (1000-fold excess of natural bombesin) was < 0.5 % AD/10^6 cells. Also, the membrane bound fraction result in data set [1] (acidic glycine wash fraction, n = 2–3 in triplicate) was “less than 5 % AD/10^6 cells”. In data set [2] (1–100 nM radiopeptide), this molecule came in with a Kd of 21.3 ± 4.6 nM. Further, the Bmax in data set [2] (maximum receptor occupancy) came to 0.91 ± 0.06 nM. In data set [3] (1 h p.i., i.v. 10 pmol, PC-3 xenograft, GRPR-positive, mean ± SD, n = 5–6, read-out: Tumor uptake), the tissue uptake at 1 h worked out at 2.72 ± 0.88 %ID/g. Also, the tissue uptake at 1 h in data set [3] (1 h p.i., i.v. 10 pmol, mean ± SD, n = 5–6, read-out: Blood uptake) was 1.22 ± 0.4 %ID/g. In addition, the tissue uptake at 1 h in data set [3] (1 h p.i., i.v. 10 pmol, mean ± SD, n = 5–6, read-out: Bone uptake) is 0.44 ± 0.28 %ID/g. Moreover, the tissue uptake at 1 h in data set [3] (1 h p.i., i.v. 10 pmol, mean ± SD, n = 5–6, read-out: Brain uptake) amounted to 0.09 ± 0.07 %ID/g. Besides, in data set [3] (1 h p.i., i.v. 10 pmol, mean ± SD, n = 5–6, read-out: Heart uptake), the tissue uptake at 1 h came out at 0.5 ± 0.23 %ID/g. In addition, the tissue uptake at 1 h in data set [3] (1 h p.i., i.v. 10 pmol, mean ± SD, n = 5–6, read-out: Kidney uptake) is 4.32 ± 0.97 %ID/g. In addition, in data set [3] (1 h p.i., i.v. 10 pmol, mean ± SD, n = 5–6, read-out: Liver uptake), the tissue uptake at 1 h is 2.75 ± 0.74 %ID/g. Besides, the tissue uptake at 1 h in data set [3] (1 h p.i., i.v. 10 pmol, mean ± SD, n = 5–6, read-out: Lung uptake) came out at 1.38 ± 0.83 %ID/g. Further, in data set [3] (1 h p.i., i.v. 10 pmol, mean ± SD, n = 5–6, read-out: Muscle uptake), the tissue uptake at 1 h came out at 0.35 ± 0.24 %ID/g. Besides, the tissue uptake at 1 h in data set [3] (1 h p.i., i.v. 10 pmol, mean ± SD, n = 5–6, read-out: Spleen uptake) turned out to be 1.16 ± 0.17 %ID/g. For the same molecule, the tissue uptake at 1 h in data set [3] (Adrenal uptake) turned out to be 5.34 ± 1.85 %ID/g. Besides, the tissue uptake at 1 h in data set [3] (Colon uptake) amounted to 5.85 ± 1.29 %ID/g. In addition, in data set [3] (Intestine uptake), the tissue uptake at 1 h was found to be 3.71 ± 1.48 %ID/g. Also, the tissue uptake at 1 h in data set [3] (Pancreas uptake) came out at 17.1 ± 3.25 %ID/g. Moreover, the tissue uptake at 1 h in data set [3] (Stomach uptake) was determined as 3.03 ± 0.88 %ID/g.

The values are drawn from PMC7321340, “Sorbitol as a Polar Pharmacological Modifier to Enhance the Hydrophilicity of ^99mTc-Tricarbonyl-Based Radiopharmaceuticals” (Molecules, 2020).
